Results as given in US20190085055A1.
Several values for one entry are separate records, joined by “and”; a condition that tells them apart may be missing. Equal entries are not always repeated. Blank lines part the entries; values can stand above or below the substance they belong to.

What was measured:
[1] = biological target: D3H44 light chain L89R_F98W; assay: LCCA (SPR), competitor L2 WT
[2] = biological target: D3H44 light chain L89R_F98W; assay: LCCA (SPR), competitor L2 F98Y
[3] = biological target: D3H44 light chain F98Y; assay: LCCA (SPR), competitor L1 L89R_F98W
[4] = biological target: D3H44 light chain, wild type; assay: LCCA (SPR), competitor L1 L89R_F98W
[5] = biological target: D3H44 light chain, wild type; assay: LCCA: H1 co-expressed with L1 and L2, SPR read-out of light chain tags; competing chain L1
[6] = biological target: D3H44 light chain L89R_F98W; assay: LCCA: H1 co-expressed with L1 and L2, SPR read-out of light chain tags; competing chain L2
[7] = biological target: D3H44 light chain F98A; assay: LCCA (SPR), competitor L2 WT
[8] = biological target: D3H44 light chain F98L; assay: LCCA (SPR), competitor L1 WT
[9] = biological target: D3H44 light chain F98W; assay: LCCA (SPR), competitor L1 F98A
[10] = biological target: D3H44 light chain, wild type; assay: LCCA (SPR), competitor L1 F98A
[11] = biological target: D3H44 light chain F98W; assay: LCCA (SPR), competitor L1 F98L
[12] = biological target: D3H44 light chain F98A; assay: LCCA (SPR), competitor L2 F98W
[13] = biological target: D3H44 light chain F98L; assay: LCCA (SPR), competitor L2 F98W
[14] = biological target: D3H44 light chain, wild type; assay: LCCA (SPR), competitor L2 F98L
[15] = biological target: D3H44 light chain F116A; assay: LCCA (SPR), competitor L1 WT
[16] = biological target: D3H44 light chain F118W_V133S; assay: LCCA (SPR), competitor L1 F116S
[17] = biological target: D3H44 light chain F116A_L135A; assay: LCCA (SPR), competitor L1 L135W
[18] = biological target: D3H44 light chain F116A_L135V; assay: LCCA (SPR), competitor L1 L135W
[19] = biological target: D3H44 light chain, wild type; assay: LCCA (SPR), competitor L2 F116A
[20] = biological target: D3H44 light chain F116A_L135A; assay: LCCA (SPR), competitor L1 L135W_N137A
[21] = biological target: D3H44 light chain L135W_N137A; assay: LCCA (SPR), competitor L2 F116A_L135A
[22] = biological target: D3H44 light chain L135W; assay: LCCA (SPR), competitor L2 F116A_L135A
[23] = biological target: D3H44 light chain L135W; assay: LCCA (SPR), competitor L2 F116A_L135V
[24] = biological target: D3H44 light chain F116S; assay: LCCA (SPR), competitor L2 F118W_V133S
[25] = biological target: D3H44 light chain Q124E_V133W_Q160E_T180E; assay: LCCA (SPR), competitor L2 V133A_Q160K_T178R
[26] = biological target: D3H44 light chain V133A_Q160K_T178R; assay: LCCA (SPR), competitor L1 Q124E_V133W_Q160E_T180E
[27] = biological target: D3H44 light chain V133A_Q160K_T178R; assay: LCCA: H1 co-expressed with L1 and L2, SPR read-out of light chain tags; competing chain L1
[28] = biological target: D3H44 light chain Q124E_V133W_Q160E_T180E; assay: LCCA: H1 co-expressed with L1 and L2, SPR read-out of light chain tags; competing chain L2
[29] = biological target: tissue factor extracellular domains (human) (UniProt P13726); assay: SPR, median of repeats
[30] = biological target: tissue factor extracellular domains (human) (UniProt P13726); assay: SPR, TF immobilised, purified Fab as analyte, 1:1 model
[31] = biological target: D3H44 light chain V133A_Q160K_T178R; assay: LCCA: H2 co-expressed with L1 and L2, SPR read-out of light chain tags; competing chain L1
[32] = biological target: D3H44 light chain Q124E_V133W_Q160E_T180E; assay: LCCA: H2 co-expressed with L1 and L2, SPR read-out of light chain tags; competing chain L2
[33] = biological target: D3H44 light chain Q124R_Q160K_T178R; assay: LCCA: H2 co-expressed with L1 and L2, SPR read-out of light chain tags; competing chain L1
[34] = biological target: D3H44 light chain Q124E_Q160E_T178D; assay: LCCA: H2 co-expressed with L1 and L2, SPR read-out of light chain tags; competing chain L2

- H1 L1 of H1 L1:H1 L2 (screen) [1]: 98.7
- H1 L1 of H1 L1:H1 L2 (verification) [1]: 119
- H1 L1 of H1 L1:H1 L2 (screen) [2]: 67.8
- H1 L1 of H1 L1:H1 L2 (verification) [2]: 76.3
- H1 L2 of H1 L1:H1 L2 (screen) [3]: 24.4
- H1 L2 of H1 L1:H1 L2 (verification) [3]: 18.1
- H1 L2 of H1 L1:H1 L2 (screen) [4]: 4.2
- H1 L2 of H1 L1:H1 L2 (verification) [4]: 4.5
- H1 Readout (H1-L2) [5]: 10
- H1 Readout (H1-L1) [6]: 99
Substance: D3H44 heavy chain (Fab format) V37E_F100D

- H2 L1 of H2 L2:H2 L1 (screen) [7]: 28.7
- H1 L2 of H1 L1:H1 L2 (screen) [8]: 7.34
- H2 L2 of H2 L2:H2 L1 (screen) [9]: 66.5
- H2 L2 of H2 L2:H2 L1 (screen) [10]: 72.6
- H2 L2 of H2 L2:H2 L1 (screen) [11]: 65.7
- H2 L1 of H2 L2:H2 L1 (screen) [12]: 30.9
- H2 L1 of H2 L2:H2 L1 (screen) [13]: 21.7
- H1 L1 of H1 L1:H1 L2 (screen) [14]: 78.5
Substance: D3H44 heavy chain (Fab format) V37I

- H1 L2 of H1 L1:H1 L2 (screen) [15]: 30.5
- H2 L2 of H2 L2:H2 L1 (screen) [16]: 76.5
- H2 L2 of H2 L2:H2 L1 (verification) [16]: 38.1 and 40.9
- H2 L2 of H2 L2:H2 L1 (screen) [17]: 77.4
- H2 L2 of H2 L2:H2 L1 (verification) [17]: 78.7
- H2 L2 of H2 L2:H2 L1 (screen) [18]: 62.7
- H2 L2 of H2 L2:H2 L1 (verification) [18]: 76.7
- H1 L1 of H1 L1:H1 L2 (screen) [19]: 58.7
- H2 L2 of H2 L2:H2 L1 (screen) [20]: 73.6
- H2 L1 of H2 L2:H2 L1 (screen) [21]: 19.8
- H2 L1 of H2 L2:H2 L1 (screen) [22]: 17.4
- H2 L1 of H2 L2:H2 L1 (verification) [22]: 10.2
- H2 L1 of H2 L2:H2 L1 (screen) [23]: 34.6
- H2 L1 of H2 L2:H2 L1 (verification) [23]: 19.1
- H2 L1 of H2 L2:H2 L1 (screen) [24]: 4.6
- H2 L1 of H2 L2:H2 L1 (verification) [24]: 40.9 and 38.1
Substance: D3H44 heavy chain (Fab format) A139W

- H1 L1 of H1 L1:H1 L2 (screen) [25]: 97.4
- H1 L1 of H1 L1:H1 L2 (verification) [25]: 93.6
- H1 L2 of H1 L1:H1 L2 (screen) [26]: 0.4
- H1 L2 of H1 L1:H1 L2 (verification) [26]: 0.6
- H1 Readout (H1-L2) [27]: 1
- H1 Readout (H1-L1) [28]: 104
Substance: D3H44 heavy chain (Fab format) L143A_D144G_Q179R

- Kd [29]: 0.06 nM
- Kd [30]: 0.052 nM
Substance: Wild-type anti-TF D3H44 Fab

- H2 L1 of H2 L2:H2 L1 (screen) [25]: 1.5
- H2 L1 of H2 L2:H2 L1 (verification) [25]: 11.5
- H2 L2 of H2 L2:H2 L1 (screen) [26]: 87.3
- H2 L2 of H2 L2:H2 L1 (verification) [26]: 83.2
- H2 Readout (H2-L2) [31]: 87
- H2 Readout (H2-L1) [32]: 14
Substance: D3H44 heavy chain (Fab format) K145T_Q179D_S188F

- H2 Readout (H2-L2) [33]: 74
- H2 Readout (H2-L1) [34]: 2
Substance: D3H44 heavy chain (Fab format) K145E_D146G_Q179D_S188L
